In publication PMC4912634 (2016):

Tests used:
[1] = molecular target: tubulin heterodimer (porcine/bovine brain tubulin) ( (porcine or bovine brain), UniProt Q6B856 1-445); assay: ITC
[2] = molecular target: DARPin-tubulin complex (used in ITC) ( (porcine or bovine brain), UniProt Q6B856 1-445); assay: ITC
Sequence of DARPin-tubulin complex (used in ITC) (chain, as listed by the source, chain 1 of 3): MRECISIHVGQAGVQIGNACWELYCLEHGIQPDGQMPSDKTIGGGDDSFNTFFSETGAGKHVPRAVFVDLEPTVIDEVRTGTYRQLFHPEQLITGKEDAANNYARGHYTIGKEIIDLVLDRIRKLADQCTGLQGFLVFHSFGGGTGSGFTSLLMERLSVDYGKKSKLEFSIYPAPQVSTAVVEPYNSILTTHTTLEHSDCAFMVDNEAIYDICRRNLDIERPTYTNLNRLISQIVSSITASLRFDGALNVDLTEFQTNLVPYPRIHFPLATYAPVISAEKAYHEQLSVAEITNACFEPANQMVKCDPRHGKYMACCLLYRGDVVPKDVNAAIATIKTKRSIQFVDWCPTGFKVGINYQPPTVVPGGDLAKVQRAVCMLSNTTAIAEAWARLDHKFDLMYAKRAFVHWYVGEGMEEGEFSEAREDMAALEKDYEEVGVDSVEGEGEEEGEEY
Sequence of DARPin-tubulin complex (used in ITC) (Q6B856 whole entry, chain 2 of 3): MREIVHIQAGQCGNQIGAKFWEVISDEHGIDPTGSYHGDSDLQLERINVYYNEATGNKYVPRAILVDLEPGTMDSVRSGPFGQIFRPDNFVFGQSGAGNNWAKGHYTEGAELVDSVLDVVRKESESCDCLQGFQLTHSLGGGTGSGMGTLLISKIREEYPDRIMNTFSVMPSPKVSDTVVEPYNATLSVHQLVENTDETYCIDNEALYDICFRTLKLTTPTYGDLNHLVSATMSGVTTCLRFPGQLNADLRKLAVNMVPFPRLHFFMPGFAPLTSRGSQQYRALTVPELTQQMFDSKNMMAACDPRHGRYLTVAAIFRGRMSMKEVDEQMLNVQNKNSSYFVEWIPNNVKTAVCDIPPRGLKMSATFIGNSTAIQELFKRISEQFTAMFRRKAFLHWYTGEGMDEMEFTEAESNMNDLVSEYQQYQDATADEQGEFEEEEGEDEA
Sequence of DARPin-tubulin complex (used in ITC) (chain, as listed by the source, chain 3 of 3): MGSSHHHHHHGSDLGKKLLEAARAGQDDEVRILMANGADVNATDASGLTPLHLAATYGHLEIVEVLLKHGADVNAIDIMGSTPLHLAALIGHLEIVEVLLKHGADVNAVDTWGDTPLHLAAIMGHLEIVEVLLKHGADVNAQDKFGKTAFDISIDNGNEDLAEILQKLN

Sequence of tubulin heterodimer (porcine/bovine brain tubulin) (chain, as listed by the source, chain 1 of 2): as the sequence (chain, as listed by the source, chain 1 of 3) above
Sequence of tubulin heterodimer (porcine/bovine brain tubulin) (Q6B856 whole entry, chain 2 of 2): as the sequence (Q6B856 whole entry, chain 2 of 3) above

Row | Kd [1] [nM] | Kd [2] [nM] | Binder
1 | 136 |  | Y341A (protein) VANIEERPIKAAIGERKQTFEDALEEQIQLEEQELKQKQLKEAEGPLPIKAKPKQPFLKRGEGLARFTNAKSKFQK
2 | 800 |  | R378E (protein) VANIEERPIKAAIGERKQTFEDYLEEQIQLEEQELKQKQLKEAEGPLPIKAKPKQPFLKEGEGLARFTNAKSKFQK
3 | 1900 |  | R384E (protein) VANIEERPIKAAIGERKQTFEDYLEEQIQLEEQELKQKQLKEAEGPLPIKAKPKQPFLKRGEGLAEFTNAKSKFQK
4 | 400 |  | K372E (protein) VANIEERPIKAAIGERKQTFEDYLEEQIQLEEQELKQKQLKEAEGPLPIKAKPEQPFLKRGEGLARFTNAKSKFQK
5 | 100 |  | F385A (protein) VANIEERPIKAAIGERKQTFEDYLEEQIQLEEQELKQKQLKEAEGPLPIKAKPKQPFLKRGEGLARATNAKSKFQK
6 | 1300 |  | K377E (protein) VANIEERPIKAAIGERKQTFEDYLEEQIQLEEQELKQKQLKEAEGPLPIKAKPKQPFLERGEGLARFTNAKSKFQK
7 | 256 |  | EE349RR (protein) VANIEERPIKAAIGERKQTFEDYLEEQIQLRRQELKQKQLKEAEGPLPIKAKPKQPFLKRGEGLARFTNAKSKFQK
8 | 116 |  | F338A (protein) VANIEERPIKAAIGERKQTAEDYLEEQIQLEEQELKQKQLKEAEGPLPIKAKPKQPFLKRGEGLARFTNAKSKFQK
9 | 143 |  | ED339RR (protein) VANIEERPIKAAIGERKQTFRRYLEEQIQLEEQELKQKQLKEAEGPLPIKAKPKQPFLKRGEGLARFTNAKSKFQK
10 |  | 3400 | KQPFLKRGEGLARFTNAKSKFQK [PN2-3C peptide (PN2-3's C-terminus, aa 372-394 of CPAP)]
